Assay results as given in the supplement of paper PMC12042874.
± gives the uncertainty stated by the source.

Assay: amyloid nucleation score (Sup35N fusion, yeast selection) (log enrichment); library NNK2; higher = more nucleation; inactive = no reads after selection
In short: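 Output and input plasmid inserts were sequenced by Illumina after psi-negative yeast carrying Sup35N fused to peptides of 20 random codons had been induced 24 hours with 100 μM copper sulfate and grown 7 days at 30°C on medium lacking adenine and uracil. The nucleation score is the DiMSum log enrichment of output over input reads, centred on the mode score of non-aggregating sequences. Sequences with under 100 input reads were excluded.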

| Substance | amyloid nucleation score |
| --- | --- |
| AHKKRDMWLRKPGL | 1.68 ± 0.53 |
| AILKWSLICMMGRDWYSQWF | 6.317 ± 0.037 |
| AILRRVKIQLPRIPPEYCGW | 0.884 ± 0.49 |
| AILSEGETGFVSDYRQVSEP | -0.004 ± 0.34 |
| AIMYFVTCMKILMFVGNYVQ | -0.118 ± 0.27 |
| AINAKRHTWLFNLHSTFLCF | 2.8 ± 0.14 |
| AIRRPDRSQFLAYLVSSCKF | -0.218 ± 0.45 |
| AIVYDH | -0.291 ± 0.63 |
| AIWYFFIRNYYPSLLQKRSL | 1.89 ± 0.12 |
| AKNVKKT | -0.575 ± 0.32 |
| ALAYAWYLVGLLFSKVWRYS | 0.095 ± 0.42 |
| ALCIAGTLLYMANLISTLHG | 0.439 ± 0.36 |
| ALEVLTTLRISLPSHKGSSF | 5.533 ± 0.051 |
| ALLFYGKMY | 5.966 ± 0.052 |
| ALMDCACFVYSRD | -0.199 ± 1.1 |
| ALNGFVYALLAGPGQRLIKP | 1.36 ± 0.53 |
| ALNLIV | -0.572 ± 0.32 |
| ALNPVCL | 0.623 ± 0.62 |
| ALQDMTI | -0.176 ± 0.36 |
| ALVAWVVSYYLALLCSPRQS | -0.1 ± 0.74 |
| ALWTSC | 2.35 ± 0.078 |
| AMDMI | 0.833 ± 0.8 |
| AMFVLVGFEFY | 1.47 ± 0.11 |
| AMGNKREKVL | 0.601 ± 0.44 |
| AMGVC | -0.061 ± 0.41 |

| Substance | amyloid nucleation score |
| --- | --- |
| AMSPGTVKRFGLLVALFQY | 0.867 ± 0.74 |
| AMSSA | 0.906 ± 0.52 |
| AMYICLRVIGSSGRSVMASK | 0.782 ± 0.16 |
| ANKTSPICSCVFNEL | 6.3 ± 0.088 |
| ANKTVFVLEMVGVRGFYLMP | 2.66 ± 0.098 |
| ANLSRCVELMSRPQSVD | 1 ± 0.15 |
| ANVGYFVGW | 0.873 ± 0.31 |
| APRGLTFVQQSVSSIHLTAK | 0.345 ± 0.39 |
| APRRVSERFGSIVWVRRNS | -0.547 ± 0.55 |
| APSHPSTVFLYICLLFENKP | -0.128 ± 0.55 |
| APVLSDN | -0.07 ± 0.49 |
| AQLRKMSSVNYV | -0.825 ± 1.1 |
| AQTSWNILFAKS | -0.501 ± 0.64 |
| ARCCFVPEEYSVV | 1.22 ± 0.25 |
| ARCMGFLSGGIHYRYLTAQM | inactive |
| ARFFLHFG | 6.2 ± 0.074 |
| ARKISV | inactive |
| ARMRKFTCRDWFRDPMGQPA | 0.854 ± 0.25 |
| ARNSVKHSFFQVRRLHGSWD | 0.367 ± 0.38 |
| ARRVQRKSIPTFVSSAMMSD | -0.25 ± 0.36 |
| ARTWGAAIWFMGN | 4.09 ± 0.093 |
| ARVIFAVSVLEFRVGYSQGA | 3.87 ± 0.086 |
| ARVNYLRTCKYASRNSFHRS | -0.913 ± 0.45 |
| ARWWMSSKRR | 0.026 ± 0.65 |
| ASALGRWFTPHVSFIKYGGA | 0.531 ± 0.49 |

| Substance | amyloid nucleation score |
| --- | --- |
| ASCVVRGQYAQMVYCWRTLG | -0.072 ± 0.23 |
| ASFMSISVYND | -0.32 ± 0.63 |
| ASFQLELS | 0.438 ± 0.38 |
| ASGCLASEDKMGVYLWVV | 0.171 ± 0.65 |
| ASGSKDACGCATSCV | 0.86 ± 0.13 |
| ASHLWDGRSAWHTVLSLPVT | 1.08 ± 0.18 |
| ASIGY | 0.663 ± 0.22 |
| ASIYNFYVLNSPFLF | 4.73 ± 0.081 |
| ASLLSGFNFKSVRHGLRDLG | 0.568 ± 0.24 |
| ASNAWDRLGSVPGFSRGRLR | -0.308 ± 0.48 |
| ASNMIV | -0.563 ± 0.33 |
| ASPLQPLSGYVIVRVAPSIT | 0.266 ± 0.51 |
| ASQIDSLVRNRNCLNSTKIG | -0.23 ± 0.44 |
| ASREWASSVVLW | 0.427 ± 0.29 |
| ASVNSRSINSSGQFPPCFRK | -0.434 ± 0.61 |
| ATMEGSAECVFTRDIKIFRH | inactive |
| ATMVSPTSQLAPNMYNASLT | 5.97 ± 0.085 |
| ATYAGMFMEEMPEHYFVWGT | 0.356 ± 0.74 |
| ATYNCVHRWGIFTSAYGSKC | -0.653 ± 0.56 |
| AVDFKQDNHKYVNSLTDMGA | 0.034 ± 1.1 |
| AVFSSVLGYNA | 0.257 ± 0.56 |
| AVGNMDVQEGFTTSRADRGL | 0.913 ± 0.21 |
| AVKCVVEVTPWLDVKIKSFY | -0.735 ± 0.55 |
| AVLLTMWYLNICTHIWVQTL | 0.139 ± 0.33 |
| AVSHCMDDSFWGAIHKRLLY | 3.63 ± 0.15 |

| Substance | amyloid nucleation score |
| --- | --- |
| AVVFGRGPSGYTHPMFRWPC | -0.754 ± 1.1 |
| AWFCREKGNGFFFM | inactive |
| AWRAYITILGKDHAVSVSGL | 0.715 ± 0.43 |
| AWRDTHWTASCRSGSRRILS | 4.59 ± 0.046 |
| AYGKLSE | -0.68 ± 0.5 |
| AYGVIGWCWSYGERNWVHVR | 0.377 ± 0.49 |
| AYHRWSTVLWILTYWTLRMC | 0.053 ± 1.1 |
| AYKSYGKASSDWMWGLCSHH | -0.108 ± 0.56 |
| AYLTTREAVGLFNKACLASY | 0.439 ± 0.74 |
| AYMSITSSLYNCTRRPTGTC | -1.35 ± 0.38 |
| AYRRYDWYFMLVRLLY | 0.795 ± 0.5 |
| AYSEPAISQRFFLSGLKSII | -0.885 ± 0.34 |
| AYSIHPLNKGVKVSYRLAGH | 0.306 ± 0.2 |
| AYTFSNSVNVCCVGVLEVIV | 5.8 ± 0.077 |
| AYVIRAKEC | 0.162 ± 0.39 |
| AYYCLRDLEVEYKVGYGSRL | 2.64 ± 0.21 |
| AYYLFYTRGEFR | 3.2 ± 0.09 |
| AYYSVSC | 3 ± 0.11 |
| CALFLFRKVLVLIT | -1.48 ± 0.55 |
| CAMDCSSVQGGSTITKCHTM | 0.218 ± 1.1 |
| CARYLIEVRYKGKKIQYSM | -0.837 ± 0.39 |
| CASAVLCCPKTSR | -0.02 ± 0.34 |
| CASNQCTGP | 3.28 ± 0.065 |
| CAVEVM | -0.724 ± 0.64 |
| CAVGDPYCSAMFMMNLWGEK | 9.547 ± 0.052 |

| Substance | amyloid nucleation score |
| --- | --- |
| CCCASR | inactive |
| CCICKSRHLFDWKNDEWTSI | -0.45 ± 0.63 |
| CCILVSWFGIHSRCGVRCAR | 0.877 ± 0.3 |
| CCIRQCNMRIKADDQRRDVI | 0.109 ± 0.53 |
| CCIRSLWLNLVLTNASGPSL | 4.39 ± 0.049 |
| CCVYAASLLPFQLVAALLTD | 0.91 ± 0.34 |
| CCYLFRSLRLVGSQIFSQSL | 0.35 ± 0.8 |
| CDAGFEIVLSLIN | -0.828 ± 0.74 |
| CDFLLLKLFRNVLVWLVCSG | inactive |
| CEEFMKFFAGYQTHVLVFSR | inactive |
| CESENKQYKNRLEIP | -2.05 ± 0.54 |
| CFCWLLNSNLKGNLSRGRHL | -0.337 ± 1.1 |
| CFFLTHCRDIRNVSTV | -0.234 ± 0.37 |
| CFIKVAVNWQL | 8.826 ± 0.057 |
| CFIRHISGK | -0.315 ± 0.63 |
| CFLWHAT | 0.451 ± 0.41 |
| CFMFWLCITNGIRPQCPLAS | 0.016 ± 0.65 |
| CFNIQNFELNRVMNLFYCRY | 6.37 ± 0.075 |
| CFNVV | 0.43 ± 0.49 |
| CFRDTFERSFKFLERPNIMH | 1.26 ± 0.19 |
| CFRRKGALSLIACRW | -0.03 ± 0.46 |
| CFSLRVENSVRRTTTHPCLD | 3.87 ± 0.075 |
| CFSNFVG | 0.746 ± 0.31 |
| CFSSVIFAMIFVRNR | 1.73 ± 0.21 |
| CFTKDMLSDNCVSV | -0.845 ± 1 |

| Substance | amyloid nucleation score |
| --- | --- |
| CGCCRTRGL | 2.94 ± 0.054 |
| CGHVTMHRWGMKNIMLVYAV | -0.889 ± 1 |
| CGPPVIWVLLCKLGMFWTVS | -0.555 ± 0.55 |
| CGRRMYKSIVQICMFRGNLN | 0.053 ± 0.79 |
| CGRSRKRCIRASRSGSLNMC | 0.293 ± 0.53 |
| CHANFNVG | 1.58 ± 0.19 |
| CHCMLIG | 3.46 ± 0.066 |
| CHFSYKECRSAVRMLQYNGA | 2.54 ± 0.13 |
| CHGNGQLK | inactive |
| CHHGRYIQRVGYRLVPSAFQ | 0.098 ± 1 |
| CHLHIYGTRIERAYHRDFFL | 3.4 ± 0.1 |
| CHRKWRYLMEASHRLSHSSW | inactive |
| CHVFTSSSTRSLWTSDIIPS | 0.218 ± 0.48 |
| CIFFPRGSNFFLFQMCGLSF | 3.83 ± 0.097 |
| CIFPPYVWYGIVMVYASMYG | 6.602 ± 0.039 |
| CIFYFMILFSGDIKCLNKPL | inactive |
| CIGYLMEIHVFSNDAKVYYL | 6.24 ± 0.038 |
| CILDI | -0.089 ± 1.1 |
| CILEHRSEQWYCYLWPARRG | 4.24 ± 0.078 |
| CILRPSLSFFHMPLR | 6.962 ± 0.033 |
| CILSYVQEMTMEPYLSKSLS | -0.296 ± 0.76 |
| CILYKEACEIVIFPGFTVAN | -1.15 ± 1 |
| CINLTLYFMQ | 9.091 ± 0.053 |
| CIRTDFGA | -0.086 ± 0.35 |
| CISTLIGTRPTAYLLLLRDI | inactive |

| Substance | amyloid nucleation score |
| --- | --- |
| CITLMYNTPFYKITALWQPF | -0.484 ± 0.78 |
| CIYRHAFVLFTKPLNFGRVR | -0.166 ± 0.49 |
| CKAIFFLLDPPTFIYRGSSC | 0.079 ± 0.57 |
| CKEYMMIFMTIIKVYLNTYL | -0.698 ± 0.78 |
| CKFLRVIA | -1.42 ± 0.41 |
| CKIRNDSSSSRLVIHILDTA | 6.357 ± 0.059 |
| CKPRNLLLLSPKPIVLCKDF | -1.21 ± 0.79 |
| CKSQLHLRVRTRKNVCVVIS | 0.13 ± 0.62 |
| CLAVSSDVDSQGKGIRIYIL | -1.24 ± 1.1 |
| CLDVLLDKGSADIYFRQSSN | -1.06 ± 0.61 |
| CLFSTCTRCCLSNGFNAITR | inactive |
| CLFVTVGFCICCLFFLWFCL | 5 ± 0.1 |
| CLGGNHYHPSSTVTEQRYLT | 0.859 ± 0.48 |
| CLGNHIDSCVVFLTDAESSS | -0.484 ± 0.65 |
| CLNRNGKEVTWVGLIC | 2.46 ± 0.069 |
| CLQVAKDADFCIKAVEERGW | 2.42 ± 0.19 |
| CLVFTRVWYCAIYRTSFKET | -0.474 ± 0.38 |
| CLWVRGSCC | -1.04 ± 0.55 |
| CLWVSMDGHSFWRKFNAVI | inactive |
| CLYLACIEGWLP | 3.24 ± 0.056 |
| CLYPLSVDVVSFHYCTTCCE | 0.141 ± 0.33 |
| CLYRTLWSCLWSGMMIFCTD | -1.77 ± 1 |
| CMGFSSLFFQGWVVIDCLW | -1.1 ± 0.76 |
| CMLDA | -0.555 ± 0.76 |
